Laboratory results reported in patent US20170210777A1.

Biological target: human IgG antibody (human)
Experiment: SPR (Biacore), ligand immobilised on CM5

modified protein A (manufactured by Sino Biological Inc.)
koff: 0.00032 s⁻¹
